Common to all, as to type: cell-based, human
One assay deals with immature MoDCs. Kind of assay: Activin-A ELISA of CD40L-stimulated MoDCs with follistatin. As to conditions: CD40L 2 μg/ml. How it is done: The early autocrine/paracrine release of activin-A by MoDCs was viewed as a possible potentiating feedback loop to further activin-A production. To test this, immature MoDCs were cultured with 2 μg/ml of CD40L, together with increasing concentrations of follistatin (0-400 ng/ml). Supernatants were collected over a 6 hour period and activin-A was qualified in a standard ELISA.
A general note: ELISA stands for enzyme-linked immunosorbent assay.

Assay [1] relates to MoDCs. The assay can be described thus: IL-6 and cytokine ELISA of stimulated MoDCs with follistatin. As to conditions: for IL-6 production: follistatin 0, 20, 100 ng/ml. Here is the method: Prior studies had shown that, in an in vivo LPS challenge model, activin-A is released into the circulatory system rapidly, and can be detected prior to IL-6, and just prior to TNF-α release. […] This was tested by combining MoDCs with trimeric CD40L, or LPS, at a fixed concentration, together with varying concentrations of follistatin (0, 20, and 100 ng/ml) MoDCs were combined with GM-CSF and IL-4 as a control. Supernatants were collected after 4 hours, 24 hours, and 48 hours of culture, and then assayed for IL-6 via a standard ELISA.
Further experiments were then carried out, using trimeric CD40L or concentrations of LPS and follistatin that were even higher (1 ng/ml-150 ng/ml for LPS, and 400 ng/ml for follistatin).

Assay [2] concerns MoDCs. The assay can be described thus: qRT-PCR of IL-6 mRNA in MoDCs with follistatin. To be noted: follistatin 400 ng/ml. How it is done: When qRT-PCR was carried out, a 15 fold increase in IL-6 mRNA expression was observed 2 hours after MoDC stimulation and the 400 ng/ml dose of follistatin, with a peak at 4 hours, (30 fold), with a decrease over 6-24 hours.
(Real-time PCR tracks product formation cycle by cycle.)

In assay [3] the test system is CD8+ T cells co-cultured with MoDCs. As to conditions: follistatin 400 ng/ml, nine days, IFN-γ secretion and CD107a expression.
Assay [4] concerns MoDCs. Kind of assay: IL-10 secretion and mRNA in MoDCs with follistatin. The text has this: Supernatants were screened, via standard ELISAs, for a large array of cytokines and chemokines, including pleiotropic IL-10.
The subject of assay [5] is MoDCs co-cultured with NK cells. The assay can be described thus: IFN-γ production in MoDC and NK cell co-culture with follistatin. How it is done:
The dendritic cells were obtained by culturing CD14^+ monocytes with GM-CSF and IL-4, for 6-7 days, which are standard culture conditions. A sample of 5×10^4 MoDCs were co-cultured with 1×10^5 NK cells, either with or without 400 ng/ml follistatin. As controls, samples of each type of cell were cultured individually.
IFN-γ production was measured, as described supra.
To test this, 5×10^4 immature MoDCs were cultured, in 96 well-plates, in standard media supplemented with 20 U/ml IL-2 and 20 ng/ml GM-CSF only, or with the addition of 1×10^5 autologous NK cells. In addition, the cells were stimulated with IL-12 and poly I:C. In addition, 400 ng/ml of follistatin was added to cultures in order to neutralize activin-A.
After 24 hours, supernatants were collected, and assayed for IFNγ via a standard ELISA.

For the next assay, the system named is MoDC. The assay can be described thus: Chemokine secretion by CD40L-stimulated MoDCs with follistatin. As to conditions: 24 hours, increasing follistatin. Here is the method: MoDC culture supernatants were screened following 24 hours of culture, using controls, and increasing concentration of follistatin, as described supra. Assays were carried out, following standard methods, for IL-12p70, TNF-α, IL-8, IP-10, RANTES, and MCP-1.

The test system of assay [6] is MoDCs. The assay can be described thus: IL-12p35 expression, IL-12p70 and TNF-α secretion by CD40L-stimulated MoDCs. How it is done: In view of this, the experiments were extended to investigate the impact, if any on IL-12p70, a potent TH1 cytokine, and pro-inflammatory TNF-α. The experiments were carried out in the same way as the prior experiments were.
The mark [7] stands for this setting: CD40L-stimulated MoDCs with follistatin.

The record followed here is patent publication US20100279409A1, “METHOD FOR MODIFYING CELLUAR IMMUNE RESONSE BY MODULATING ACTIVIN ACTIVITY” (priority 2007, published 2010).

B1: follistatin (protein, UniProt P19883 30-344, looked up)
Follistatin: GNCWLRQAKNGRCQVLYKTELSKEECCSTGRLSTSWTEEDVNDNTLFKWMIFNGGAPNCIPCKETCENVDCGPGKKCRMNKKNKPRCVCAPDCSNITWKGPVCGLDGKTYRNECALLKARCKEQPELEVQYQGRCKKTCRDVFCPGSSTCVVDQTNNAYCVTCNRICPEPASSEQYLCGNDGVTYSSACHLRKATCLLGRSIGLAYEGKCIKAKSCEDIQCTGGKKCLWDFKVGRGRCSLCDELCPDSKSDEPVCASDNATYASECAMKEAACSSGVLLEVKHSGSCNSISEDTEEEEEDEDQDYSFPISSILEW
On to B1, for which the activin-A production entry with immature MoDCs (follistatin 0-400 ng/ml, first 2-4 hours) is “dose dependent decreases in activin-A production”. Moreover, the activin-A production result with immature MoDCs (follistatin 400 ng/ml, at 6 hours) was “unable to abrogate the level of activin-A production”. Besides, in the assay with MoDCs [1] (CD40L-stimulated MoDCs), the IL-6 production entry is “as follistatin concentration increased, so too did IL-6 production”. For the same molecule, in the assay on MoDCs [1] (LPS 1 ng/ml-150 ng/ml, follistatin 400 ng/ml), the “LPS mediated IL-6 production” value is reported as “not LPS mediated IL-6 production, at any dose”. In the assay with MoDCs [1] (LPS-stimulated MoDCs), the IL-6 production result is given as “did not influence its production”. For the same molecule, in the assay on MoDCs [1] (follistatin 400 ng/ml), the “CD40L mediated production of IL-6” value is given as “dramatically enhanced”. For the same molecule, the MoDC cytokine production result in the assay with MoDCs [1] (follistatin alone, no other stimulus) is recorded as “did not induce MoDC cytokine production”. Besides, the “increase in IL-6 mRNA expression” value with MoDCs [2] (2 hours after MoDC stimulation) is listed as 15 fold. In addition, in the assay with MoDCs [2] (peak at 4 hours), the “increase in IL-6 mRNA expression” value was 30 fold. In assay [3], the “percentage of influenza matrix specific CD8+ T cells displaying effector function” value is listed as “significantly increased” and the “total number of influenza matrix specific CD8+ T cells displaying effector function” value is given as “significantly increased”. Further, in the assay on MoDCs [4] (CD40L-stimulated MoDCs with follistatin, peak at 4 hours), the “IL-10 mRNA expression” value is reported as “increased IL-10 mRNA expression”. In addition, in the assay with MoDCs [4] (MoDCs with follistatin), the “CD40L mediated IL-10 secretion” value is on record as “enhanced IL-10 secretion by the MoDCs in a dose dependent manner” and the “E. coli mediated IL-10 secretion” value is “did not impact”. For the same molecule, the IFN-γ production entry in assay [5] (MoDCs co-cultured with NK cells, follistatin 400 ng/ml) is on record as “increased markedly”. Also, in assay [5] (NK cells alone stimulated with cytokines), the IFN-γ production result is given as “had no impact”. In assay [5] (immature MoDCs and autologous NK cells, IL-12 and poly I:C, follistatin 400 ng/ml, 24 hours), the IFN-γ production entry is reported as “significant increases in IFN-γ production”. In the assay on MoDC, the IL-8 production result is listed as “substantially enhanced”, the MCP-1 production result is on record as “substantially enhanced” and the RANTES production entry is listed as “substantially enhanced”. Moreover, in the assay with MoDCs [6] (setting [7]), the IL-12p70 protein secretion entry is “dose dependent enhancement” and the TNF-α secretion entry was “dose dependent enhancement peaking at 24 hours”. In addition, the “IL-12p35 expression vs CD40L alone” value with MoDCs [6] (at 24 hours, CD40L plus follistatin) is given as “at least 15 fold”. Moreover, the IL-12p70 secretion entry in the assay on MoDCs [6] (follistatin alone, without any other stimulus) was “did not induce IL-12p70 secretion”.
